# Experimental data from US7223834 (Bristol-Myers Squibb, dated 2007).
# Ends that are not written are not given here. * marks the point of attachment. Biotin = O=C1N[C@H]2[C@H](CS[C@H]2CCCCC(=O)*)N1
# B1: 30-mer inhibitor peptide (30-IP), QTVTWPDMELPLPRNITEGQARGSVILTVK-Biotin (peptide)
# peptide: QTVTWPDMELPLPRNITEGQARGSVILTVK(Biotin)
# modifications: not fully specified (N-terminus, C-terminus); printed as QTVTWPDMELPLPRNITEGQARGSVILTVK-Biotin
# Target: aggrecan degrading metallo protease (ADMP)
# Assay: cell-based or functional assay
binder,measurement,value
B1,"IC50 for the inhibition of ADMP activity (microplate assay, cleavage of plate-bound 41-PS detected with BC-3 antibody)",11 µM
